The supplement of paper PMC9112550, “Optimization of the antimicrobial peptide Bac7 by deep mutational scanning” (BMC Biology, 2022)

System: Escherichia coli TOP10
Test: shrunken log2 fold change of peptide-encoding DNA abundance (4.5 h post-induction vs induction); higher = less antimicrobial activity (less host growth inhibition)
Conditions: time post-induction: 4.5 h; library: site-saturation at positions 5, 18, 19, 20
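Further: peptides expressed intracellularly from a pBAD plasmid library in pooled LB shake-flask culture, induced with 0.3% L-arabinose, DNA abundance read by NGS, three biological replicates, DESeq2 with apeglm shrinkage.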

Sequence	shrunken log2 fold change
RRIRCRPPRLPRPRPRPTSIPRP	-0.343
RRIRIRPPRLPRPRPRPVQVPRP	-0.0757
RRIRGRPPRLPRPRPRPGSDPRP	1.06
RRIRLRPPRLPRPRPRPKEEPRP	-0.0533
RRIRWRPPRLPRPRPRPTEAPRP	0.214
RRIRARPPRLPRPRPRPFVGPRP	-0.0485
RRIRIRPPRLPRPRPRPHSGPRP	-0.00591
RRIRLRPPRLPRPRPRPEDCPRP	0.0408
RRIRPRPPRLPRPRPRPNYEPRP	-0.442
RRIRFRPPRLPRPRPRPWTSPRP	-0.0445
RRIRYRPPRLPRPRPRPWTAPRP	-0.283
RRIRIRPPRLPRPRPRPMLIPRP	-0.21
RRIRDRPPRLPRPRPRPVSTPRP	0.0725
RRIRERPPRLPRPRPRPSFRPRP	-0.431
RRIRDRPPRLPRPRPRPSSSPRP	0.135
RRIRMRPPRLPRPRPRPKEEPRP	0.0115
RRIRKRPPRLPRPRPRPGDVPRP	0.278
RRIRFRPPRLPRPRPRPMCDPRP	0.226
RRIRHRPPRLPRPRPRPKVFPRP	-0.00193
RRIRNRPPRLPRPRPRPFYPPRP	-0.5
RRIRRRPPRLPRPRPRPAEEPRP	0.618
RRIRLRPPRLPRPRPRPLHEPRP	-0.00702
RRIRERPPRLPRPRPRPAERPRP	0.104
RRIRKRPPRLPRPRPRPPTQPRP	0.301
RRIRMRPPRLPRPRPRPEGDPRP	4.15

Sequence	shrunken log2 fold change
RRIRQRPPRLPRPRPRPEYKPRP	-0.124
RRIRSRPPRLPRPRPRPKDQPRP	0.232
RRIRLRPPRLPRPRPRPIWAPRP	0.136
RRIRIRPPRLPRPRPRPCQKPRP	-0.0157
RRIRNRPPRLPRPRPRPQNDPRP	-0.966
RRIRFRPPRLPRPRPRPQLQPRP	0.0569
RRIRDRPPRLPRPRPRPHVCPRP	-0.00727
RRIRSRPPRLPRPRPRPKESPRP	0.284
RRIRFRPPRLPRPRPRPPQMPRP	0.333
RRIRSRPPRLPRPRPRPNVYPRP	-0.257
RRIRPRPPRLPRPRPRPPMCPRP	0.0827
RRIRQRPPRLPRPRPRPLTPPRP	0.31
RRIRFRPPRLPRPRPRPQKKPRP	-0.0897
RRIRFRPPRLPRPRPRPMLWPRP	0.165
RRIRFRPPRLPRPRPRPHKAPRP	0.0324
RRIRTRPPRLPRPRPRPMQHPRP	-0.112
RRIRRRPPRLPRPRPRPGCQPRP	-0.176
RRIRCRPPRLPRPRPRPTNDPRP	-0.218
RRIRKRPPRLPRPRPRPCGTPRP	-0.0177
RRIRCRPPRLPRPRPRPWPVPRP	0.215
RRIRPRPPRLPRPRPRPDEEPRP	0.0245
RRIRCRPPRLPRPRPRPGCTPRP	-0.279
RRIRLRPPRLPRPRPRPQWYPRP	-0.426
RRIRYRPPRLPRPRPRPKHQPRP	-0.441
RRIRFRPPRLPRPRPRPDIRPRP	0.0306

Sequence	shrunken log2 fold change
RRIRDRPPRLPRPRPRPFARPRP	0.579
RRIRMRPPRLPRPRPRPVLDPRP	0.331
RRIRMRPPRLPRPRPRPKHTPRP	1.93
RRIRPRPPRLPRPRPRPGYQPRP	-0.0523
RRIRHRPPRLPRPRPRPCKNPRP	-0.444
RRIRKRPPRLPRPRPRPHCMPRP	0.159
RRIRHRPPRLPRPRPRPFNLPRP	-0.189
RRIRGRPPRLPRPRPRPPVYPRP	0.352
RRIRARPPRLPRPRPRPNAKPRP	0.262
RRIRVRPPRLPRPRPRPFELPRP	0.0193
RRIRCRPPRLPRPRPRPTDIPRP	-0.623
RRIRMRPPRLPRPRPRPFMVPRP	-0.161
RRIRARPPRLPRPRPRPWTCPRP	0.0519
RRIRQRPPRLPRPRPRPGSWPRP	0.298
RRIRIRPPRLPRPRPRPEWMPRP	-0.0985
RRIRQRPPRLPRPRPRPAFGPRP	0.171
RRIRYRPPRLPRPRPRPLCGPRP	-0.557
RRIRSRPPRLPRPRPRPHWSPRP	-0.0455
RRIRARPPRLPRPRPRPVMSPRP	0.0513
RRIRQRPPRLPRPRPRPAKQPRP	0.0569
RRIRDRPPRLPRPRPRPFQFPRP	-0.324
RRIRFRPPRLPRPRPRPQIYPRP	-1.01
RRIRQRPPRLPRPRPRPAYIPRP	-0.00563
RRIRYRPPRLPRPRPRPKLEPRP	0.00557
RRIRKRPPRLPRPRPRPPANPRP	0.48

Sequence	shrunken log2 fold change
RRIRKRPPRLPRPRPRPSYEPRP	-0.304
RRIRDRPPRLPRPRPRPKMTPRP	0.093
RRIRERPPRLPRPRPRPNAGPRP	0.0608
RRIRCRPPRLPRPRPRPSVSPRP	-0.185
RRIRIRPPRLPRPRPRPKCRPRP	-0.452
RRIRMRPPRLPRPRPRPYQMPRP	0.119
RRIRCRPPRLPRPRPRPHQAPRP	-0.0274
RRIRTRPPRLPRPRPRPPDHPRP	0.112
RRIRLRPPRLPRPRPRPCCYPRP	-0.611
RRIRKRPPRLPRPRPRPVAIPRP	0.265
RRIRTRPPRLPRPRPRPRPFPRP	0.114
RRIRLRPPRLPRPRPRPKRMPRP	-0.029
RRIRCRPPRLPRPRPRPFYVPRP	-0.825
RRIRARPPRLPRPRPRPENCPRP	0.177
RRIRHRPPRLPRPRPRPVMLPRP	-0.196
RRIRQRPPRLPRPRPRPSLEPRP	0.0433
RRIRQRPPRLPRPRPRPQWIPRP	-0.0848
RRIRPRPPRLPRPRPRPTVKPRP	-0.00591
RRIRYRPPRLPRPRPRPCAYPRP	-0.0775
RRIRKRPPRLPRPRPRPTRSPRP	0.831
RRIRQRPPRLPRPRPRPMIEPRP	-0.118
RRIRGRPPRLPRPRPRPGCIPRP	0.445
RRIRPRPPRLPRPRPRPMIDPRP	-0.16
RRIRLRPPRLPRPRPRPDKLPRP	-0.266
RRIRARPPRLPRPRPRPSGCPRP	0.0438

Sequence	shrunken log2 fold change
RRIRHRPPRLPRPRPRPHMGPRP	-0.238
RRIRRRPPRLPRPRPRPRYIPRP	-0.12
RRIRWRPPRLPRPRPRPWKWPRP	-0.0893
RRIRSRPPRLPRPRPRPFPTPRP	-0.101
RRIRKRPPRLPRPRPRPHSDPRP	0.0765
RRIRIRPPRLPRPRPRPPKDPRP	-0.674
RRIRIRPPRLPRPRPRPQQCPRP	-0.211
RRIRVRPPRLPRPRPRPCMTPRP	0.0668
RRIRDRPPRLPRPRPRPAFPPRP	-0.0705
RRIRGRPPRLPRPRPRPYRKPRP	0.176
RRIRARPPRLPRPRPRPMDEPRP	1.02
RRIRLRPPRLPRPRPRPYYIPRP	-0.982
RRIRQRPPRLPRPRPRPKKFPRP	-0.097
RRIRGRPPRLPRPRPRPCVQPRP	0.523
RRIRRRPPRLPRPRPRPENQPRP	0.368
RRIRLRPPRLPRPRPRPRFKPRP	0.0114
RRIRGRPPRLPRPRPRPKRCPRP	0.788
RRIRGRPPRLPRPRPRPTFMPRP	0.327
RRIRMRPPRLPRPRPRPWKLPRP	-0.133
RRIRERPPRLPRPRPRPPCMPRP	-0.272
RRIRDRPPRLPRPRPRPNHQPRP	-0.303
RRIRHRPPRLPRPRPRPGPPPRP	0.228
RRIRARPPRLPRPRPRPIKQPRP	-0.0628
RRIRWRPPRLPRPRPRPKQHPRP	0.299
RRIRWRPPRLPRPRPRPQQDPRP	0.0825
